Assay results as given in article PMC12084297, “Cytoplasmic connexin43-microtubule interactions promote glioblastoma stem-like cell maintenance and tumorigenicity” (Cell Death & Disease, 2025).

Assays:
[1] = target: α-tubulin (human (endogenous in VTC-037 GSCs)) (UniProt P68363); assay: cellular thermal shift assay (CETSA); fresh VTC-037 GSC lysates in non-denaturing buffer treated 1 h with 3-fold dilutions (222.2, 74.0, 24.7, 8.2 and 2.7 nM) of peptide, heat challenge at 57 °C for 20 min, centrifugation, immunoblot of the stable protein normalised to DMSO control; EC50 of target engagement
Sequence of α-tubulin (human (endogenous in VTC-037 GSCs)) (P68363 whole entry): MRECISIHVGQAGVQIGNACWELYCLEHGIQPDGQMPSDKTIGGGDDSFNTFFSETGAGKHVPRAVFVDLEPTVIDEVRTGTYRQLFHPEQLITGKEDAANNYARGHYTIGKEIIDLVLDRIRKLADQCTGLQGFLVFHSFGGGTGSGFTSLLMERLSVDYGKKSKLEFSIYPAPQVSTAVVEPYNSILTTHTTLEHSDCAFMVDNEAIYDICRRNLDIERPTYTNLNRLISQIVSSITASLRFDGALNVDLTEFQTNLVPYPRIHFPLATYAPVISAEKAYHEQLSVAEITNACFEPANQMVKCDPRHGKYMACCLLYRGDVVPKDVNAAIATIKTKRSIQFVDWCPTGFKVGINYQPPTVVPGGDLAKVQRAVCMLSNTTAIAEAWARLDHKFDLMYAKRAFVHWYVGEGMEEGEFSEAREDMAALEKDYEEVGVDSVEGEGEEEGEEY

[2] = target: β-tubulin (human (endogenous in VTC-001 and VTC-037 GSCs)) (UniProt P07437); assay: as above
Sequence of β-tubulin (human (endogenous in VTC-001 and VTC-037 GSCs)) (P07437 whole entry): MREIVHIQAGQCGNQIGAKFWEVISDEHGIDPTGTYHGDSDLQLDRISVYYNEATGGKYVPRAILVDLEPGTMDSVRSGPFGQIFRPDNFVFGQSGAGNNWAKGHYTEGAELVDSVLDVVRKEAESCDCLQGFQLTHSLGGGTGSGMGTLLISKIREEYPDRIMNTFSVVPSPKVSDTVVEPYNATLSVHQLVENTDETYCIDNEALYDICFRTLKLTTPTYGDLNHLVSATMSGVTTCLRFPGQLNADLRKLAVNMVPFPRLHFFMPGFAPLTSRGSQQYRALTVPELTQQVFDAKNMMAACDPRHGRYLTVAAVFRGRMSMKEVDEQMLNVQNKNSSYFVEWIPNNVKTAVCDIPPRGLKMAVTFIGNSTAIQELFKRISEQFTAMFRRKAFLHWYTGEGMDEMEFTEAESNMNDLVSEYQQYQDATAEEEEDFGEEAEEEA

EC50 [1]: 8.4 nM
EC50 [2]: 7.9 nM
Substance: JM2 (juxtamembrane 2) peptide
